Measured values published in patent US20260243776A1 (LEIBNIZ INSTITUT F R ALTERNSFORSCHUNG FRITZ LIPMANN …, published 2026).

Assays:
[1] = target: BRD2 (human, UniProt P25440 1-801, limits assumed); test: proximity biotinylation in HEK293T cells treated with the PROTAC KB02-JQ1 (10 uM), with or without MG132; recruitment induced by the small molecule
Method: (§1) The expression of BirA* or miniTurbo fusion proteins were induced by a single addition of tetracycline stock (solved in ethanol) exposing the cells to its final concentration of 1 μg/μl in total for 4 days. 2 hours (miniTurbo lines) or 24 hours (BirA* lines) prior to cell harvesting, 50 μM biotin was added to the culture media. […] Upon treatment, cells were washed 3×times with PBS and harvested by trypsinization. For each sample, a pellet corresponding to 20 million cells was collected and snap-frozen in liquid nitrogen.

[2] = target: BRD3 (human, UniProt Q15059 2-726, limits assumed); test: as above
Sequence of BRD3 (Q15059 2-726 limits assumed): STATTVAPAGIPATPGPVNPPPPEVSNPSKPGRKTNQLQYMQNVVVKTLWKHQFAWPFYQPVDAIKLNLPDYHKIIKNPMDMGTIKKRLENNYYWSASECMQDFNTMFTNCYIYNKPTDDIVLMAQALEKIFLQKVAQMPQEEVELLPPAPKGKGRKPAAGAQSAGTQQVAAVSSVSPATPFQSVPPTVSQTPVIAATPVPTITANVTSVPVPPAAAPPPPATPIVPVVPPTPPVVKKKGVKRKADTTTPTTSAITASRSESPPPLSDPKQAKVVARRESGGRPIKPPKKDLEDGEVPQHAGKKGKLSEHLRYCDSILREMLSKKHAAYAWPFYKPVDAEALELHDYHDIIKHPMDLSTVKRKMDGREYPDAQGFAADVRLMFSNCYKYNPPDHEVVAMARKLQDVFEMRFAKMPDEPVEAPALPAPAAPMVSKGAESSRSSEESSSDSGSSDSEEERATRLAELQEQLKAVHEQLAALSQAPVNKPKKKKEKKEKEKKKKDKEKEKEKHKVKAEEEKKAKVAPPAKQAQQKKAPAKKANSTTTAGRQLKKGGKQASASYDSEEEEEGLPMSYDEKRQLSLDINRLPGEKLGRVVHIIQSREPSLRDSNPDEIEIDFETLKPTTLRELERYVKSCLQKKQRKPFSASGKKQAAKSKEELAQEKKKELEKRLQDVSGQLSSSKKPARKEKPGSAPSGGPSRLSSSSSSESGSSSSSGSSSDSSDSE
Method: as §1

Sequence of BRD2 (P25440 whole entry): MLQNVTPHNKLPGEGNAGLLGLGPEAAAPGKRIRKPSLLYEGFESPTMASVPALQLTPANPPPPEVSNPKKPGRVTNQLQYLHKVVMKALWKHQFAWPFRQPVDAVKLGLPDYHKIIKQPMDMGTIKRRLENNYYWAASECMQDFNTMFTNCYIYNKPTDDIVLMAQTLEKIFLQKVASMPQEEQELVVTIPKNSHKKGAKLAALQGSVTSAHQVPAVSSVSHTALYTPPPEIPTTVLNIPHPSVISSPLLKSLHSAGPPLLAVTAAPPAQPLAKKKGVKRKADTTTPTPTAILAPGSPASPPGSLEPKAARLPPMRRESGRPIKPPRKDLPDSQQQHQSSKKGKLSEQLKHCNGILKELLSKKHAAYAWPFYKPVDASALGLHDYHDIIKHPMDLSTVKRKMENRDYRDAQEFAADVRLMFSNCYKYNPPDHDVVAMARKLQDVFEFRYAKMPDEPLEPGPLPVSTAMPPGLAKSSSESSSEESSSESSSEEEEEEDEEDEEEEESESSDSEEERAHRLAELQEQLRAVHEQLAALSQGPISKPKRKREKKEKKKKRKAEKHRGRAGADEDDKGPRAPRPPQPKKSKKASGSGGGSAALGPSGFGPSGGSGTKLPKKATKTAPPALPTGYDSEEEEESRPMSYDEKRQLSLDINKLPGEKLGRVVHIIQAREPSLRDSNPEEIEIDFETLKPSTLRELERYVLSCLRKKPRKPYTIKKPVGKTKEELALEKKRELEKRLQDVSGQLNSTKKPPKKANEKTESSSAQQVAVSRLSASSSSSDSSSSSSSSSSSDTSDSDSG

B1: PSMA4-miniTurbo-FLAG (other)
chain: MSRRYDSRTTIFSPEGRLYQVEYAMEAIGHAGTCLGILANDGVLLAAERRNIHKLLDEVFFSEKIYKLNEDMACSVAGITSDANVLTNELRLIAQRYLLQYQEPIPCEQLVTALCDIKQAYTQFGGKRPFGVSLLYIGWDKHYGFQLYQSDPSGNYGGWKATCIGNNSAAAVSMLKQDYKEGEMTLKSALALAIKVLNKTMDVSKLSAEKVEIATLTRENGKTVIRVLKQKEVEQLIKKHEEEEAKAEREKKEKEQKEKDKYPTFLYKVVDSRMASIPLLNAKQILGQLDGGSVAVLPVVDSTNQYLLDRIGELKSGDACIAEYQQAGRGSRGRKWFSPFGANLYLSMFWRLKRGPAAIGLGPVIGIVMAEALRKLGADKVRVKWPNDLYLQDRKLAGILVELAGITGDAAQIVIGAGINVAMRRVEESVVNQGWITLQEAGINLDRNTLAAMLIRELRAALELFEQEGLAPYLSRWEKLDNFINRPVKLIIGDKEIFGISRGIDKQGALLLEQDGVIKPWMGGEISLRSAEKLQDDYKDDDDK
notes: also called A4-mT; PSMA4_miniTurboID
- binding result [1]: binds
- binding result [2]: binds
